Tested on: Escherichia coli TOP10
Assay: shrunken log2 fold change of peptide-encoding DNA abundance (4.5 h post-induction vs induction); higher = less antimicrobial activity (less host growth inhibition)
Conditions: time post-induction: 4.5 h; library: site-saturation at positions 5, 18, 19, 20
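Further: peptides expressed intracellularly from a pBAD plasmid library in pooled LB shake-flask culture, induced with 0.3% L-arabinose, DNA abundance read by NGS, three biological replicates, DESeq2 with apeglm shrinkage.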

Sequence	shrunken log2 fold change
RRIRDRPPRLPRPRPRPMNIPRP	-0.0931
RRIRWRPPRLPRPRPRPRVDPRP	0.39
RRIRQRPPRLPRPRPRPRSTPRP	0.203
RRIRWRPPRLPRPRPRPDMEPRP	-0.0114
RRIRQRPPRLPRPRPRPAFGPRP	0.171
RRIRTRPPRLPRPRPRPNEDPRP	-0.0528
RRIRLRPPRLPRPRPRPQQPPRP	-0.208
RRIRYRPPRLPRPRPRPCNNPRP	-0.331
RRIRTRPPRLPRPRPRPIDTPRP	-0.157
RRIRWRPPRLPRPRPRPRFRPRP	0.314
RRIRLRPPRLPRPRPRPNKGPRP	-0.254
RRIRGRPPRLPRPRPRPTRQPRP	0.577
RRIRERPPRLPRPRPRPTEYPRP	-0.123
RRIRPRPPRLPRPRPRPNVFPRP	-0.21
RRIRSRPPRLPRPRPRPYCVPRP	-0.912
RRIRGRPPRLPRPRPRPAIAPRP	0.91
RRIRERPPRLPRPRPRPADGPRP	-0.0752
RRIRTRPPRLPRPRPRPDMCPRP	-0.0287
RRIRWRPPRLPRPRPRPFMCPRP	-0.245
RRIRLRPPRLPRPRPRPQWYPRP	-0.426
RRIRYRPPRLPRPRPRPSCWPRP	-0.349
RRIRNRPPRLPRPRPRPNASPRP	0.374
RRIRWRPPRLPRPRPRPPGRPRP	0.877

Sequence	shrunken log2 fold change
RRIRSRPPRLPRPRPRPPEKPRP	0.797
RRIRLRPPRLPRPRPRPRQGPRP	0.252
RRIRRRPPRLPRPRPRPCVDPRP	0.163
RRIRQRPPRLPRPRPRPQCMPRP	-0.496
RRIRIRPPRLPRPRPRPKIYPRP	-0.581
RRIRVRPPRLPRPRPRPKMSPRP	-0.122
RRIRIRPPRLPRPRPRPIFTPRP	0.0285
RRIRERPPRLPRPRPRPRHIPRP	-0.643
RRIRRRPPRLPRPRPRPMITPRP	-0.172
RRIRVRPPRLPRPRPRPANCPRP	0.031
RRIRGRPPRLPRPRPRPPLEPRP	1.2
RRIRLRPPRLPRPRPRPERKPRP	-0.0366
RRIRKRPPRLPRPRPRPIPSPRP	0.422
RRIRTRPPRLPRPRPRPQRRPRP	-0.0307
RRIRKRPPRLPRPRPRPITIPRP	-0.165
RRIRGRPPRLPRPRPRPNMSPRP	0.161
RRIRLRPPRLPRPRPRPPHAPRP	1.2
RRIRHRPPRLPRPRPRPSWEPRP	-0.0671
RRIRLRPPRLPRPRPRPRDPPRP	0.968
RRIRKRPPRLPRPRPRPGKQPRP	0.599
RRIRCRPPRLPRPRPRPAIHPRP	-0.248
RRIRVRPPRLPRPRPRPRSFPRP	0.029
RRIRFRPPRLPRPRPRPMLFPRP	-0.0947

Sequence	shrunken log2 fold change
RRIRERPPRLPRPRPRPLDMPRP	-0.16
RRIRRRPPRLPRPRPRPTCMPRP	0.315
RRIRARPPRLPRPRPRPSEFPRP	0.00109
RRIRPRPPRLPRPRPRPCDAPRP	0.375
RRIRGRPPRLPRPRPRPITLPRP	0.217
RRIRSRPPRLPRPRPRPYVWPRP	-0.332
RRIRVRPPRLPRPRPRPICRPRP	0.177
RRIRFRPPRLPRPRPRPMKLPRP	-0.0666
RRIRFRPPRLPRPRPRPRSHPRP	-0.181
RRIRNRPPRLPRPRPRPGYPPRP	0.0226
RRIRDRPPRLPRPRPRPGMNPRP	0.164
RRIRTRPPRLPRPRPRPMCSPRP	-0.0861
RRIRMRPPRLPRPRPRPPREPRP	1.19
RRIRIRPPRLPRPRPRPYSTPRP	-1.85
RRIRERPPRLPRPRPRPLSFPRP	0.329
RRIRTRPPRLPRPRPRPEDWPRP	0.386
RRIRQRPPRLPRPRPRPEYKPRP	-0.124
RRIRDRPPRLPRPRPRPQVDPRP	-0.0156
RRIRDRPPRLPRPRPRPNKGPRP	-0.00129
RRIRNRPPRLPRPRPRPVRTPRP	0.296
RRIRTRPPRLPRPRPRPFLTPRP	0.153
RRIRVRPPRLPRPRPRPIPFPRP	0.0609
RRIRQRPPRLPRPRPRPPAAPRP	0.778

Sequence	shrunken log2 fold change
RRIRGRPPRLPRPRPRPWFMPRP	-0.384
RRIRVRPPRLPRPRPRPTPAPRP	0.448
RRIRWRPPRLPRPRPRPKVVPRP	0.352
RRIRNRPPRLPRPRPRPIINPRP	-0.265
RRIRARPPRLPRPRPRPGDTPRP	0.264
RRIRLRPPRLPRPRPRPHELPRP	0.245
RRIRTRPPRLPRPRPRPPTSPRP	0.345
RRIRVRPPRLPRPRPRPAQHPRP	0.151
RRIRVRPPRLPRPRPRPAHLPRP	-0.0953
RRIRYRPPRLPRPRPRPDHQPRP	-0.167
RRIRARPPRLPRPRPRPVHEPRP	0.00256
RRIRYRPPRLPRPRPRPNRCPRP	0.00786
RRIRFRPPRLPRPRPRPAEQPRP	1.16
RRIRGRPPRLPRPRPRPCFNPRP	0.436
RRIRRRPPRLPRPRPRPMHIPRP	0.238
RRIRYRPPRLPRPRPRPFGQPRP	-0.219
RRIRQRPPRLPRPRPRPWSHPRP	-0.105
RRIRDRPPRLPRPRPRPPFSPRP	0.0121
RRIRVRPPRLPRPRPRPTHPPRP	0.378
RRIRHRPPRLPRPRPRPHWMPRP	-0.785
RRIRPRPPRLPRPRPRPMWVPRP	-0.138
RRIRHRPPRLPRPRPRPKSVPRP	-0.0127

Reference: the supplement of paper PMC9112550, “Optimization of the antimicrobial peptide Bac7 by deep mutational scanning” (BMC Biology, 2022)
